Target: the molecule itself
Assay: SEC

| Protein | stoichiometry N |
| --- | --- |
| Deinococcus geothermalis DdrO (residues 12-140) (natural protein) MGSSHHHHHHSSGLVPRGSHMKLHERLRELRSERGLRLKDVAETAGISVPYLSDLERGRTNPSLETLQTLAGAYSITVHDLLEGVEFYGDSTEGALPKGLADLVADPLLGSQITPDWVRTLSRIELRGKRPRDKQDWYEIYLHLKRILG | 2 |
| DG-DdrO R22A (natural protein) MGSSHHHHHHSSGLVPRGSHMKLHERLRELASERGLRLKDVAETAGISVPYLSDLERGRTNPSLETLQTLAGAYSITVHDLLEGVEFYGDSTEGALPKGLADLVADPLLGSQITPDWVRTLSRIELRGKRPRDKQDWYEIYLHLKRILG | 2 |
| DG-DdrO Y129A (natural protein) MGSSHHHHHHSSGLVPRGSHMKLHERLRELRSERGLRLKDVAETAGISVPYLSDLERGRTNPSLETLQTLAGAYSITVHDLLEGVEFYGDSTEGALPKGLADLVADPLLGSQITPDWVRTLSRIELRGKRPRDKQDWAEIYLHLKRILG | 2 |
| DG-DdrO Y132A (natural protein) MGSSHHHHHHSSGLVPRGSHMKLHERLRELRSERGLRLKDVAETAGISVPYLSDLERGRTNPSLETLQTLAGAYSITVHDLLEGVEFYGDSTEGALPKGLADLVADPLLGSQITPDWVRTLSRIELRGKRPRDKQDWYEIALHLKRILG | 2 |
